Assay [1] has as its target T1, human folate receptor alpha (FRα) on FRα-positive cells (KB, T47D, JHOS-4) (human, UniProt P15328 25-234).
T1 construct: Endogenous FRα on human tumour cell lines; also called FOLR1; folate receptor 1
In words: competition FACS on FRα-positive T47D cells; Morrison antibody fixed at 0.8 nM, detected with anti-human FITC secondary; murine parental antibodies titrated (log axis -11 to -7, unit not given; text: 0.2 to 50 nM). How it is done: These eight constructs were further polished using ceramic hydroxyapatite chromatography to greater than 95% purity and subjected to further characterization. To account for the effects of overall molecule conformation or potential structural changes of the scFv arms on the binding of the biparatopic arms, the binding efficiency of each arm of the eight Morrison's constructs was assayed by a competition FACS assay. Briefly, FRα-positive T47D cells were incubated with 0.8 nM of a Morrison's antibody mixed with a corresponding murine parental antibody at a range of concentrations, generally from 50 nM to 0.2 nM. After incubation on ice for 2 hours, cells were washed from unbound antibodies, and bound Morrison's antibody was detected with secondary anti-human FITC-labeled antibody. Reduced binding of the Morrison's antibody in the presence of increasing concentration of the parental antibody indicated an effect on binding of the second set of arms.

The target in assay [2] is recombinant FRα antigen (human, UniProt P15328 25-234). The assay can be described thus: BLI (Octet96), IgG on anti-human- or anti-murine-Fc sensors, recombinant FRα in solution, 1:1 fit. On the procedure: Table 10 summarizes the kinetic parameters of binding of Bin1 and Bin 2 antibodies with recombinant FRα antigen. KD values were obtained via biolayer interferometry performed on Octet96 system (Fortebio) essentially according to manufacturer's recommended procedure. Briefly, anti-human- or anti-murine −Fc sensors were presoaked in 1× Kinetic Buffer (Fortebio) for 10 min and incubated with 5 μg/mL of either Bin 1 or Bin 2 IgG for 5 min. The sensors were then sequentially moved to 1× Kinetic Buffer for 5 min to determine baseline, serial dilutions of antigen for association (10 min), and 1× Kinetic Buffer for dissociation (10 min). The raw data was collected, processed and fitted to a simple 1:1 binding model using Fortebio analysis software to determine the kinetic parameters Kon and Koff.

Broadly, the Kd is the constant that tells how readily two partners part at equilibrium. Usually koff stands for the rate constant with which the complex falls apart. As a reminder, the kon is the second-order rate constant of association.

Sequence of recombinant FRα antigen (P15328 25-234 limits assumed): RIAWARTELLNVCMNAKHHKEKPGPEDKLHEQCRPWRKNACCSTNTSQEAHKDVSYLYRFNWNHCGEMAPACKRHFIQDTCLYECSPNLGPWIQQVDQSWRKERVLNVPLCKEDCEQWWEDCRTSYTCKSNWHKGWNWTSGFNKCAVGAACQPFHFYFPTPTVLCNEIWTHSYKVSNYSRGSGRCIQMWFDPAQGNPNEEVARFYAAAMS
T1 sequence (P15328 25-234 limits assumed, stated change not applied): as the sequence (P15328 25-234 limits assumed) above

B1: Mov19-G1-FR57scFv1 (Molecule-1: mov19-IgG1-FR57scFv1) (bispecific antibody)
heavy: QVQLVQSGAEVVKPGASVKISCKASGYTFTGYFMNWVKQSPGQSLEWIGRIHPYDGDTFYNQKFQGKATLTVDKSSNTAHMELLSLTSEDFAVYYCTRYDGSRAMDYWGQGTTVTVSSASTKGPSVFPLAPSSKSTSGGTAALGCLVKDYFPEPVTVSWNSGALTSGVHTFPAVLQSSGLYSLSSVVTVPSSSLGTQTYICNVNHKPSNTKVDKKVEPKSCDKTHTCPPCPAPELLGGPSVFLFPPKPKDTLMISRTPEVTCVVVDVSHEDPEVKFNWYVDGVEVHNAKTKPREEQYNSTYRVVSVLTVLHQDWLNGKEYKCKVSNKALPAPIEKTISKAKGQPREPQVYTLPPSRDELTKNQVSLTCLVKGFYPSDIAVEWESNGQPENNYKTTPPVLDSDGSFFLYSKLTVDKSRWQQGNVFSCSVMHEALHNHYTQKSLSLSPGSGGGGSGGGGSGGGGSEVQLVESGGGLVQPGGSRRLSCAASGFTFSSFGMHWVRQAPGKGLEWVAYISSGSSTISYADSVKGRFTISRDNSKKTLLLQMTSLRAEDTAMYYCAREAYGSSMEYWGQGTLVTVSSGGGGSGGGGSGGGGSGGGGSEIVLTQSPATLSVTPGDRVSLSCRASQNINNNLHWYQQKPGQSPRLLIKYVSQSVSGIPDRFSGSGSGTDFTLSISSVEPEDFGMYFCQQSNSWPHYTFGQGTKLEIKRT
light: DIVLTQSPLSLAVSLGQPAIISCKASQSVSFAGTSLMHWYHQKPGQQPRLLIYRASNLEAGVPDRFSGSGSKTDFTLTISPVEAEDAATYYCQQSREYPYTFGGGTKLEIKRTVAAPSVFIFPPSDEQLKSGTASVVCLLNNFYPREAKVQWKVDNALQSGNSQESVTEQDSKDSTYSLSSTLTLSKADYEKHKVYACEVTHQGLSSPVTKSFNRGEC
notes: Tetravalent Morrison format with the FR57 scFv on the C-terminus of the Mov19 IgG1 heavy chain; also called Mov19:FR57scFv; M9346A-FR57scFv
Regarding B1, the binding result in assay [1] is reported as “binds”.

B2: huMov19 (M9346A) antibody (antibody, V domains shown)
VH: QVQLVQSGAEVVKPGASVKISCKASGYTFTGYFMNWVKQSPGQSLEWIGRIHPYDGDTFYNQKFQGKATLTVDKSSNTAHMELLSLTSEDFAVYYCTRYDGSRAMDYWGQGTTVTVSS
VL: DIVLTQSPLSLAVSLGQPAIISCKASQSVSFAGTSLMHWYHQKPGQQPRLLIYRASNLEAGVPDRFSGSGSKTDFTLTISPVEAEDAATYYCQQSREYPYTFGGGTKLEIKR
notes: Humanized IgG1/kappa; also called huM9346A; huM9346A-biotin
In the case of B2, in assay [2], the Kd was found to be 0.6 nM, the koff amounted to 0.0003 s⁻¹ and the association rate constant (kon) came to 500000 M⁻¹ s⁻¹.

B3: FR57 antibody (antibody, V domains shown)
VH: EVQLVESGGGLVQPGGSRRLSCAASGFTFSSFGMHWVRQAPGKGLEWVAYISSGSSTISYADSVKGRFTISRDNSKKTLLLQMTSLRAEDTAMYYCAREAYGSSMEYWGQGTLVTVSS
VL: EIVLTQSPATLSVTPGDRVSLSCRASQNINNNLHWYQQKPGQSPRLLIKYVSQSVSGIPDRFSGSGSGTDFTLSISSVEPEDFGMYFCQQSNSWPHYTFGQGTKLEIK
notes: Tested as an IgG; Only the variable domains are tied to the stand-alone antibody; also called huFR57; FR1-57
For the molecule B3, in assay [2], the Kd came out at 1 nM, the koff was found to be 0.0004 s⁻¹ and the kon is 300000 M⁻¹ s⁻¹.

B4: FR57-G1-Mov19scFv1 (Molecule 2: FR57-IgG1-mov19scFv1) (bispecific antibody)
heavy: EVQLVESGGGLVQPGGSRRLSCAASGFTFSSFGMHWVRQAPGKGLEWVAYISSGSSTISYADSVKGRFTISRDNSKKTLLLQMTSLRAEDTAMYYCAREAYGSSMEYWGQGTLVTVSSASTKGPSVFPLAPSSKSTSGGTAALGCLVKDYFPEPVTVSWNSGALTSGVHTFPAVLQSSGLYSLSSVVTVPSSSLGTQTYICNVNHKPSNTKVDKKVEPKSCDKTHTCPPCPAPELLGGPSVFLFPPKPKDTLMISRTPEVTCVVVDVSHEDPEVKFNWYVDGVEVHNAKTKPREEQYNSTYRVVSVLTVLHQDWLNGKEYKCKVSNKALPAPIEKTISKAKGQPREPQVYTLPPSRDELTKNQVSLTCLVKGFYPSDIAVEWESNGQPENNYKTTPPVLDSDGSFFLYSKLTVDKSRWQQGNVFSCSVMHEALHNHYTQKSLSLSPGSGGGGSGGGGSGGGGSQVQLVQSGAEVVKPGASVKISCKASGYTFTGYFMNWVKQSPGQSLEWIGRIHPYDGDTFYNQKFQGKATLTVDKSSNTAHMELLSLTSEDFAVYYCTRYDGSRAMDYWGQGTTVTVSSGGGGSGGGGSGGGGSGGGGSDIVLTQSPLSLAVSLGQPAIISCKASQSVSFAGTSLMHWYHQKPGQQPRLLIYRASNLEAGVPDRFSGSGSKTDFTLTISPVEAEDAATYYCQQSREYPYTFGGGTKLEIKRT
light: EIVLTQSPATLSVTPGDRVSLSCRASQNINNNLHWYQQKPGQSPRLLIKYVSQSVSGIPDRFSGSGSGTDFTLSISSVEPEDFGMYFCQQSNSWPHYTFGQGTKLEIKRTVAAPSVFIFPPSDEQLKSGTASVVCLLNNFYPREAKVQWKVDNALQSGNSQESVTEQDSKDSTYSLSSTLTLSKADYEKHKVYACEVTHQGLSSPVTKSFNRGEC
notes: Tetravalent Morrison format with the Mov19 scFv on the C-terminus of the FR57 IgG1 heavy chain; also called FR57:Mov19scFv; FR57-M9346AscFv
Regarding B4, the binding result in assay [1] is reported as “binds”.
